The source of these data is patent publication US20160130347A1 (Hoffmann-La Roche, published 2016).

One assay addresses T1, cynomolgus MCSP D3 (cynomolgus).
T1 construct: domain: D3; also called Cyno MCSP; cynomolgus homologue
The assay is described as follows: ratio of ProteOn IgG KD against parental M4-3/ML2 IgG. As for the experimental part:
(§1) Briefly, carboxymethylated dextran biosensor chips (CM5, GE Healthcare) were activated with N-ethyl-N′-(3-dimethylaminopropyl)-carbodiimide hydrochloride (EDC) and N-hydroxysuccinimide (NHS) according to the supplier's instructions. Anti-human F(ab′)2 fragment specific capture antibody was diluted with 10 mM sodium acetate, pH 5.0 at 50 μg/ml before injection at a flow rate of 10 μl/minute to achieve approximately up to 10.000 response units (RU) of coupled capture antibody. Following the injection of the capture antibody, 1 M ethanolamine is injected to block unreacted groups. For kinetics measurements, Fabs from bacterial supernatant or purified Fabs were injected at a flow rate of 10 ul/minute for 300 s and a dissociation of 300 s for capture baseline stabilization. Capture levels were in the range of 100-500 RU. […] The surface of the sensorchip was regenerated by injection of glycine pH 1.5 for 30 s at 90 ul/min followed by injection of NaOH for 20 s at the same flow rate. Association rates (kon) and dissociation rates (koff) were calculated using a simple one-to-one Langmuir binding model (ProteOn XPR36 Evaluation Software or Scrubber software (BioLogic)) by simultaneously fitting the association and dissociation sensorgrams. The equilibrium dissociation constant (KD) was calculated as the ratio koff/kon.
(§2) Method exactly as described for the Fab fragments, just purified IgG from mammalian production were used.

Assay [1] addresses T2, human MCSP(D3 domain)-avi-his (human, UniProt Q6UVK1 1587-2221, limits assumed).
T2 construct: domain: D3 domain; also called hu-MCSP(D3 domain)-avi-his
T2 sequence (looked up): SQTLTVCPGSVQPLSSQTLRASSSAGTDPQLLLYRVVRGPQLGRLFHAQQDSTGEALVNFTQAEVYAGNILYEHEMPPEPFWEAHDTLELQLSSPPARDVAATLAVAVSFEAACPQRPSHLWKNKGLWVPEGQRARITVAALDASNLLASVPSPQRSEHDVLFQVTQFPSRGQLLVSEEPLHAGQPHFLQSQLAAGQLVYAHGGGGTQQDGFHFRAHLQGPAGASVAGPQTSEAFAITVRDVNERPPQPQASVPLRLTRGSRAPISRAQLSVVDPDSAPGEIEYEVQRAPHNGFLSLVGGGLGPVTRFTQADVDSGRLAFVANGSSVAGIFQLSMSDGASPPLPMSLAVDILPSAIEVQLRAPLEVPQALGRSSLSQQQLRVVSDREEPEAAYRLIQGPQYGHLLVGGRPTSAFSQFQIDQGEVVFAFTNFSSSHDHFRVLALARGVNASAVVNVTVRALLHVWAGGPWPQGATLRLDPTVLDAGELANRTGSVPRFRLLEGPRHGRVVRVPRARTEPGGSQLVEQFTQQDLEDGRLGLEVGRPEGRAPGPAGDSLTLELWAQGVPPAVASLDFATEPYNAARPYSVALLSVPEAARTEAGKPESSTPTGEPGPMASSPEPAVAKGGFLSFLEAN
Described as above. Here is the method:
as §1, §2

B1: M4-3(A7)/ML2 IgG (antibody, V domains shown)
VH: QVQLQESGPGLVKPSQTLSLTCTVSGGSITDGYYWNWIRQHPGKGLEWIGYITFDGRNNYNPSLKSRVTISRDTSKNQFSLKLSSVTAADTAVYYCADFDYWGQGTLVTVSS
VL: DIQMTQSPSSLSASVGDRVTITCRASQGIRNYLNWYQQKPGKAPKLLIYYTSSLHSGVPSRFSGSGSGTDFTLTISSLQPEDFATYYCQQYSKLPWTFGQGTKVEIK
notes: Human IgG1 format
With B1, the “fold increase over parent (IgG KD, comparative binding affinity)” value (“fold increase over parent” below) is 2 fold in the assay with cynomolgus MCSP D3 and 2.5 fold in assay [1].

B2: M4-3/ML2(G3) IgG (antibody, V domains shown)
VH: QVQLQESGPGLVKPSQTLSLTCTVSGGSITSGYYWNWIRQHPGKGLEWIGYITYDGSNNYNPSLKSRVTISRDTSKNQFSLKLSSVTAADTAVYYCADFDYWGQGTLVTVSS
VL: DIQMTQSPSSLSASVGDRVTITCRASQGIRNYLNWYQQKPGKAPKLLIYYTSSLHSGVPSRFSGSGSGTDYTLTISSLQPEDFATYYCQQYSALPWTFGQGTKVEIK
notes: Human IgG1 format
Turning to B2, the results for the “fold increase over parent” value (with cynomolgus MCSP D3; in assay [1]) were 3.3 fold and 6.7 fold, respectively.

B3: M4-3/ML2 (C5) IgG (antibody, V domains shown)
VH: QVQLQESGPGLVKPSQTLSLTCTVSGGSITSGYYWNWIRQHPGKGLEWIGYITYDGSNNYNPSLKSRVTISRDTSKNQFSLKLSSVTAADTAVYYCADFDYWGQGTLVTVSS
VL: DIQMTQSPSSLSASVGDRVTITCRASRGIREYLNWYQQKPGKAPKLLIYYTGSLHSGVPSRFSGSGSGTDFTLTISSLQPEDFATYYCQQYSELPWTFGQGTKVEIK
notes: Human IgG1 format
For the molecule B3, the figures for the “fold increase over parent” value (with cynomolgus MCSP D3; in assay [1]) were 2 fold and 5 fold, respectively.

B4: M4-3/ML2 (E10) IgG (antibody, V domains shown)
VH: QVQLQESGPGLVKPSQTLSLTCTVSGGSITSGYYWNWIRQHPGKGLEWIGYITYDGSNNYNPSLKSRVTISRDTSKNQFSLKLSSVTAADTAVYYCADFDYWGQGTLVTVSS
VL: DIQMTQSPSSLSASVGDRVTITCRASYGIRGYLNWYQQKPGKAPKLLIYYTSSLHSGVPSRFSGSGSGTDFTLTISSLQPEDFATYHCQQYSKLPWTFGQGTKVEIK
notes: Human IgG1 format
For B4, the entries for the “fold increase over parent” value (in the assay with cynomolgus MCSP D3; in assay [1]) were 1 fold and 2 fold, respectively.

B5: M4-3(D6)/ML2 IgG (antibody, V domains shown)
VH: QVQLQESGPGLVKPSQTLSLTCTVSGGSITSGYYWNWIRQHPGKGLEWIGYITFDGKNNYNPSLKSRVTISRDTSKNQFSLKLSSVTAADTAVYYCADFDYWGQGTLVTVSS
VL: DIQMTQSPSSLSASVGDRVTITCRASQGIRNYLNWYQQKPGKAPKLLIYYTSSLHSGVPSRFSGSGSGTDFTLTISSLQPEDFATYYCQQYSKLPWTFGQGTKVEIK
notes: Human IgG1 format
Consider B5, for which the “fold increase over parent” value in the assay with cynomolgus MCSP D3 was found to be 2 fold; in assay [1] it was 5 fold.

B6: M4-3(C1)/ML2 IgG (antibody, V domains shown)
VH: QVQLQESGPGLVKPSQTLSLTCTVSGGSITSGYYWNWIRQHPGKGLEWIGYITFDGSNNYNPSLKSRVTISRDTSKNQFSLKLSSVTAADTAVYYCADFDYWGQGTLVTVSS
VL: DIQMTQSPSSLSASVGDRVTITCRASQGIRNYLNWYQQKPGKAPKLLIYYTSSLHSGVPSRFSGSGSGTDFTLTISSLQPEDFATYYCQQYSKLPWTFGQGTKVEIK
notes: Human IgG1 format
For B6, the “fold increase over parent” value in the assay with cynomolgus MCSP D3 came to 2.5 fold; in assay [1], 2.2 fold.

B7: M4-3(B7)/ML2 IgG (antibody, V domains shown)
VH: QVQLQESGPGLVKPSQTLSLTCTVSGGSITSGYYWNWIRQHPGKGLEWIGYITFDGINNYNPSLKSRVTISRDTSKNQFSLKLSSVTAADTAVYYCADFDYWGQGTLVTVSS
VL: DIQMTQSPSSLSASVGDRVTITCRASQGIRNYLNWYQQKPGKAPKLLIYYTSSLHSGVPSRFSGSGSGTDFTLTISSLQPEDFATYYCQQYSKLPWTFGQGTKVEIK
notes: Human IgG1 format
In the case of B7, the “fold increase over parent” value in the assay with cynomolgus MCSP D3 amounted to 2.9 fold; in assay [1], 4 fold.

B8: M4-3(A7)/ML2(C5) IgG (antibody, V domains shown)
VH: QVQLQESGPGLVKPSQTLSLTCTVSGGSITDGYYWNWIRQHPGKGLEWIGYITFDGRNNYNPSLKSRVTISRDTSKNQFSLKLSSVTAADTAVYYCADFDYWGQGTLVTVSS
VL: DIQMTQSPSSLSASVGDRVTITCRASRGIREYLNWYQQKPGKAPKLLIYYTGSLHSGVPSRFSGSGSGTDFTLTISSLQPEDFATYYCQQYSELPWTFGQGTKVEIK
notes: Human IgG1 format
With B8, the entries for the “fold increase over parent” value (with cynomolgus MCSP D3; in assay [1]) were 10 fold and 28.6 fold, respectively.

B9: M4-3(B8)/ML2 IgG (antibody, V domains shown)
VH: QVQLQESGPGLVKPSQTLSLTCTVSGGSITSGYYWNWIRQHPGKGLEWIGYITFDGRNNYNPSLKSRVTISRDTSKNQFSLKLSSVTAADTAVYYCADFDYWGQGTLVTVSS
VL: DIQMTQSPSSLSASVGDRVTITCRASQGIRNYLNWYQQKPGKAPKLLIYYTSSLHSGVPSRFSGSGSGTDFTLTISSLQPEDFATYYCQQYSKLPWTFGQGTKVEIK
notes: Human IgG1 format
Consider B9, for which the “fold increase over parent” value is 2 fold in the assay with cynomolgus MCSP D3 and 2.2 fold in assay [1].

B10: M4-3(C1)/ML2(E10) IgG (antibody, V domains shown)
VH: QVQLQESGPGLVKPSQTLSLTCTVSGGSITSGYYWNWIRQHPGKGLEWIGYITFDGSNNYNPSLKSRVTISRDTSKNQFSLKLSSVTAADTAVYYCADFDYWGQGTLVTVSS
VL: DIQMTQSPSSLSASVGDRVTITCRASYGIRGYLNWYQQKPGKAPKLLIYYTSSLHSGVPSRFSGSGSGTDFTLTISSLQPEDFATYHCQQYSKLPWTFGQGTKVEIK
notes: Human IgG1 format
As for B10, the “fold increase over parent” value amounted to 3.3 fold in the assay with cynomolgus MCSP D3 and 4 fold in assay [1].

B11: M4-3/ML2 (C5/G3) IgG (antibody, V domains shown)
VH: QVQLQESGPGLVKPSQTLSLTCTVSGGSITSGYYWNWIRQHPGKGLEWIGYITYDGSNNYNPSLKSRVTISRDTSKNQFSLKLSSVTAADTAVYYCADFDYWGQGTLVTVSS
VL: DIQMTQSPSSLSASVGDRVTITCRASRGIREYLNWYQQKPGKAPKLLIYYTGSLHSGVPSRFSGSGSGTDFTLTISSLQPEDFATYYCQQYSALPWTFGQGTKVEIK
notes: Human IgG1 format; also called MCSP ML2(C5-G3)
B11: the results for the “fold increase over parent” value (with cynomolgus MCSP D3; in assay [1]) were 2 fold and 2.9 fold, respectively.

B12: M4-3(A7)/ML2(G3) IgG (antibody, V domains shown)
VH: QVQLQESGPGLVKPSQTLSLTCTVSGGSITDGYYWNWIRQHPGKGLEWIGYITFDGRNNYNPSLKSRVTISRDTSKNQFSLKLSSVTAADTAVYYCADFDYWGQGTLVTVSS
VL: DIQMTQSPSSLSASVGDRVTITCRASQGIRNYLNWYQQKPGKAPKLLIYYTSSLHSGVPSRFSGSGSGTDYTLTISSLQPEDFATYYCQQYSALPWTFGQGTKVEIK
notes: Human IgG1 format
As for B12, the “fold increase over parent” value in the assay with cynomolgus MCSP D3 was 10 fold; in assay [1] it was 28.6 fold.

B13: M4-3(C1)/ML2(C5) IgG (antibody, V domains shown)
VH: QVQLQESGPGLVKPSQTLSLTCTVSGGSITSGYYWNWIRQHPGKGLEWIGYITFDGSNNYNPSLKSRVTISRDTSKNQFSLKLSSVTAADTAVYYCADFDYWGQGTLVTVSS
VL: DIQMTQSPSSLSASVGDRVTITCRASRGIREYLNWYQQKPGKAPKLLIYYTGSLHSGVPSRFSGSGSGTDFTLTISSLQPEDFATYYCQQYSELPWTFGQGTKVEIK
notes: Human IgG1 format
For the molecule B13, the “fold increase over parent” value with cynomolgus MCSP D3 is 6.7 fold; in assay [1], 10 fold.

B14: M4-3(A7)/ML2(E10) IgG (antibody, V domains shown)
VH: QVQLQESGPGLVKPSQTLSLTCTVSGGSITDGYYWNWIRQHPGKGLEWIGYITFDGRNNYNPSLKSRVTISRDTSKNQFSLKLSSVTAADTAVYYCADFDYWGQGTLVTVSS
VL: DIQMTQSPSSLSASVGDRVTITCRASYGIRGYLNWYQQKPGKAPKLLIYYTSSLHSGVPSRFSGSGSGTDFTLTISSLQPEDFATYHCQQYSKLPWTFGQGTKVEIK
notes: Human IgG1 format
For the molecule B14, the “fold increase over parent” value stood at 2.9 fold in the assay with cynomolgus MCSP D3 and 6.7 fold in assay [1].

B15: M4-3/ML2 (E10/G3) IgG (antibody, V domains shown)
VH: QVQLQESGPGLVKPSQTLSLTCTVSGGSITSGYYWNWIRQHPGKGLEWIGYITYDGSNNYNPSLKSRVTISRDTSKNQFSLKLSSVTAADTAVYYCADFDYWGQGTLVTVSS
VL: DIQMTQSPSSLSASVGDRVTITCRASYGIRGYLNWYQQKPGKAPKLLIYYTSSLHSGVPSRFSGSGSGTDFTLTISSLQPEDFATYHCQQYSALPWTFGQGTKVEIK
notes: Human IgG1 format; also called MCSP ML2(E10-G3)
As to B15, the “fold increase over parent” value was 2.2 fold with cynomolgus MCSP D3 and 5 fold in assay [1].
